We go through three proteins from article PMC7748142, “ATM inhibition enhances Auranofin-induced oxidative stress and cell death in lung cell lines” (PLoS ONE, 2020).

B1: peroxiredoxin 1 (PRDX1) (enzyme, human (endogenous in HEK 293T and A549), UniProt Q06830 1-199, looked up)
chain: MSSGNAKIGHPAPNFKATAVMPDGQFKDISLSDYKGKYVVFFFYPLDFTFVCPTEIIAFSDRAEEFKKLNCQVIGASVDSHFCHLAWVNTPKKQGGLGPMNIPLVSDPKRTIAQDYGVLKADEGISFRGLFIIDDKGILRQITVNDLPVGRSVDETLRLVQAFQFTDKHGEVCPAGWKPGSDTIKPDVQKSKEYFSKQK
notes: peroxiredoxin 1, endogenous in human cell lines, detected by anti-PRDX1 blot; source: endogenous, HEK 293T lysate (trapping); endogenous, A549 lysate (dimer analysis)
B2: peroxiredoxin 3 (PRDX3), A549 cells (enzyme, human (endogenous in A549), UniProt P30048 62-256, looked up)
chain: APAVTQHAPYFKGTAVVNGEFKDLSLDDFKGKYLVLFFYPLDFTFVCPTEIVAFSDKANEFHDVNCEVVAVSVDSHFSHLAWINTPRKNGGLGHMNIALLSDLTKQISRDYGVLLEGSGLALRGLFIIDPNGVIKHLSVNDLPVGRSVEETLRLVKAFQYVETHGEVCPANWTPDSPTIKPSPAASKEYFQKVNQ
notes: peroxiredoxin 3, endogenous in A549 cells, detected by anti-PRDX3 blot; source: endogenous, A549 lysate
B3: peroxiredoxin 3 (PRDX3), murine lung fibroblasts (enzyme, mouse (endogenous in MLFs), UniProt P20108 63-257, looked up)
chain: TPAVTQHAPYFKGTAVVNGEFKELSLDDFKGKYLVLFFYPLDFTFVCPTEIVAFSDKANEFHDVNCEVVAVSVDSHFSHLAWINTPRKNGGLGHMNITLLSDITKQISRDYGVLLESAGIALRGLFIIDPNGVVKHLSVNDLPVGRSVEETLRLVKAFQFVETHGEVCPANWTPESPTIKPSPTASKEYFEKVHQ
notes: peroxiredoxin 3, endogenous in murine lung fibroblasts, detected by anti-PRDX3 blot; source: endogenous, murine lung fibroblast (MLF) lysate

The data set deals with the molecule itself. In words: non-reducing SDS-PAGE with Western blot; A549 or MLF cells treated with Auranofin (A549: 10 uM, MLF: 2 uM) alone or with KU55933 (10 uM, 1 h pre-treatment); lysed in CHAPS buffer with 100 mM NEM; boiled in non-reducing sample buffer; disulfide-linked dimers. A general note: A western blot detects proteins with antibodies after separation by electrophoresis.
The stoichiometry N is a count of units in the complex or per binding partner. Turning to B1, the “stoichiometry N” value is 2.

Consider B2, for which the “stoichiometry N” value worked out at 2.

With B3, the “stoichiometry N” value is 2.
